How the values were obtained:
[1] = target: T1, ErbB2 (human, UniProt P04626 23-1255, tyrosine-phosphorylated (active) receptor after HRG stimulation; sites not resolved in the IP and FRET experiments); experiment: ErbB2 immunoprecipitation from SKBr3 and T47D cells
T1 construct: whole, on cells; Endogenous receptor, tested in fixed cells (FRET) and in cell lysates (co-IP); also called HER2

[2] = target: RACK1, receptor of activated C kinase (human, UniProt P63244 1-317); experiment: Copine-III IP from SKBr3 lysates, relative quantification by MRM mass spectrometry

binding result [1]: binds
fold enrichment in Copine-III IPs vs. control IPs [2]: 1.5 fold
B1: Copine III (other)
chain: MAAQCVTKVALNVSCANLLDKDIGSKSDPLCVLFLNTSGQQWYEVERTERIKNCLNPQFSKTFIIDYYFEVVQKLKFGVYDIDNKTIELSDDDFLGECECTLGQIVSSKKLTRPLVMKTGRPAGKGSITISAEEIKDNRVVLFEMEARKLDNKDLFGKSDPYLEFHKQTSDGNWLMVHRTEVVKNNLNPVWRPFKISLNSLCYGDMDKTIKVECYDYDNDGSHDLIGTFQTTMTKLKEASRSSPVEFECINEKKRQKKKSYKNSGVISVKQCEITVECTFLDYIMGGCQLNFTVGVDFTGSNGDPRSPDSLHYISPNGVNEYLTALWSVGLVIQDYDADKMFPAFGFGAQIPPQWQVSHEFPMNFNPSNPYCNGIQGIVEAYRSCLPQIKLYGPTNFSPIINHVARFAAAATQQQTASQYFVLLIITDGVITDLDETRQAIVNASRLPMSIIIVGVGGADFSAMEFLDGDGGSLRSPLGEVAIRDIVQFVPFRQFQNAPKEALAQCVLAEIPQQVVGYFNTYKLLPPKNPATKQQKQ
notes: Endogenous protein of the human breast tumor cell lines T47D and SKBr3, tested in cell lysates (pull-down, IP) or in fixed cells (FRET); also called CPNE3; CPN3
